Source: paper PMC3265607 (Journal of Molecular Biology, 2011)

Assays:
[1] = target: ceNXT1, His6, pET28b construct for pull-down assays (Caenorhabditis elegans) (UniProt Q9U757); assay: SEC
[2] = target: T1, ceNXT1 (residues 2-137), His6, pETDuet-1 construct for structural studies (Caenorhabditis elegans, UniProt Q9U757 2-137, SeMet-labeled (selenomethionine)); assay: SEC
T1 sequence (looked up): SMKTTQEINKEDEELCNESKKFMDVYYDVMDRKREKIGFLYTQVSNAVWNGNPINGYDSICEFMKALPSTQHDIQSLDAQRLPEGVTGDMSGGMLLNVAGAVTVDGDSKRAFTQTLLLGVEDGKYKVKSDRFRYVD

| Molecule | stoichiometry N [1] | stoichiometry N [2] |
| --- | --- | --- |
| ceNXF1(NTF2) (from UniProt Q9XVS7 352-539) (domain or fragment) | 1 | – |
| ceNXF2(NTF2) (domain or fragment, Caenorhabditis elegans, UniProt Q9XVS8 202-405, looked up) FRNGYYGSDEVRTLVEEFIITYYKIYDGADGQQTRKQLLDAYDTNNSTFTHTVVCLWDPIKFVMYPDSESYRMYLRTSHNVLNQEYFAANRASRISHGAMDIVVALSRLPATIHLMDTFVVDVFLVSATLLGFTLHGTFRDGPSAIKPENTEEHDNYFTRTFMVAPRGEGKVAIVSDQLFISSMSKRRGDQYRMLVETATDIDQ | – | 1 |
